# According to patent US20060246084A1:
# Biological target: synthetic fragment of the mouse TLR-2 extracellular domain (mouse)
binder,measurement,value
LMDKNLYGYTDEEIFKAS (modifications not checked) [LcrV193-210 synthetic peptide],Kd,0.35 nM
